Laboratory results as given in US20240026407A1, “MODIFICATION OF SAPONINS” (GLAXOSMITHKLINE BIOLOGICALS SA, priority 2020, published 2024).

Assays:
Format in all cases: biochemical, Quillaja saponaria
[1] = Experiment 4-3: screening of glucosidases for deglycosylation with QS-18 in crude bark extract (1 in 2000 dilution) at pH 7 and 30 deg C; settings: CBE 1 in 2000 dilution, pH 7, 30 degC, 1 h; % conversion of QS-18 by LCMS/MS
[2] = Experiment 4-4: screening of glucosidases for deglycosylation of QS-18 in crude bark extract (1 in 20 dilution) to QS-21; settings: CBE 1 in 20 dilution, pH 6, 25 degC, 18 hours; % conversion of Middle Peak by UV HPLC
Summary of the method: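 Clarified glucosidase lysates were incubated with pH 6 crude bark extract (1 in 20) in potassium phosphate buffer pH 6 for 18 h at 25 °C with shaking, then quenched with MeCN. UV HPLC with MS/MS-supported peak identity; activity is % conversion of the extract's Middle Peak (QS-18 family) toward the QS-21 peak.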

[3] = Experiment 4-2: screening of glucosidases for deglycosylation with purified QS-18 (1 mg/ml) at pH 6 and 30 deg C; settings: pH 6, 30 degC, 18 hrs, clarified lysate, LCMS/MS
Summary of the method: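 Clarified lysates of glucosidase-expressing cells in 100 mM potassium phosphate pH 6 were incubated 18 h at 30 °C with QS-18 at 1 mg/ml final. Reactions quenched with MeCN; deglycosylation activity determined by LC-MS/MS.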

[4] = Experiment 4-1: screening of glucosidases for deglycosylation with purified QS-18 (0.04 mg/ml) at pH 7.5 and room temperature; settings: pH 7.5, room temperature, 20 h, clarified E. coli lysate, QS-18 2150 to QS-21 1988 by LCMS/MS
Summary of the method: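 Candidate glucosidases expressed in E. coli BL21(DE3) (pET24b+, autoinduction, 20 °C for 20 h); clarified lysates in 100 mM potassium phosphate pH 7.5 incubated with QS-18 (0.04 mg/ml final) 20 h at room temperature. Quenched with MeCN, analysed by LC-MS/MS for % conversion; hits >3 S.D. above negative control.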

B1: 208 (protein, listed as Anaerolinea thermophila)
chain: MNVHNQDTIEQKISELLSQMTLSEKVSLLSGKDAWRTMPIPRLGIPSITMTDGPHGVRSSYPEAGRKAGPTTCFPTGVSMAATWNTALIEKVGMALAEETRAMDCDILLGPCVNIVRHPLAGRNFESYSEDPYLNGKMGVAWVKGLQSKKVGASLKHFAANNQEFERHRGSSELDERTLREIYLPHFEMVVKEAKPFTVMCAYNRINGVYASQNRHLLREILKEEWGFDGVVVSDWGANHTIFESVENGLDLEMPGPARYYGKLLEDAVHNWQIDEKVIDDAVRRILRILFRAGKFDDPATLPPGSVNTPEHQALALEVAEEAITLLKNEADLLPLDIEKIRTLAVIGPNAAEDRIGGGGSSYVDPPYRVSPLEALRARFGDKIQIEYEKGCDNYHQPPVLGADWLGVNGLKVDFFDNPALQGQPAGTISIPKAEMWMWANSLPASKITSPRFSLRASGSFTPLESGNFTFFLVNTSTCRVFINGNKVFENTSKPKEHRAESEVQFQTTLEEGKSYDLVIEYLKDNDEEFAFWKLACMRVFGPGEDNRIQKAAELAAKSDVALVFIGMPEGFESEGYDRPDMRLPGPQDELVRAVLKANPRTVVILNAGSPVEMPWAEDVPAILEAYYPGQEGGNAVAKILFGEINPSGKLTVTFPRRLEDTPAYINYPGDRKVYYGEGIFVGYRYYEKKKVSPLFPFGHGLSYTTFEYENLTLPSEVNIGESVKVQVTVKNTGKRAGKEVVQLYVGDPESSLVRPPKELKGFAKVELQPGESKTVSFELDERAFAFYDPYQSRWVVEPGEFQILVGSSSQDIRASAVLRMA
- Expt 4-3 % conv [1]: 26.0%
- Expt 4-4 % conv [2]: <3%
- Expt 4-2 % conv [3]: 94.0%
- Expt 4-1 % conv [4]: 100.0%

B2: 169 (protein, listed as Bifiguratus adelaidae)
chain: MASSRVTELLANLTLEEKVYLLSGSDNWRTFPVPRLGIPAVKVTDGPIGARGDSFNTGQNAACFPAPIAMASTWDTDLLLKVGSALGEEAKSKAAQVLLAPTINMHRSPLNGRNFECYSEDPFLTGKMATAFVSGLQSQGVAAAVKHFACNDSEFERDSISSEITERPFREIYLRPFEMVVRDADPWCIMTSYNKINGVFASENPKLLKEILRNEWNWKGMVMSDWFGVKSTVPSVLNGNDLEMPGPPAWRGEKLLAAIKQGELKEEDLNESVQRVLSFVERVGKFEDPEERPETYLAKPEITELIRNVSADSIILVKNEQSLPLNKDALKSVAIIGPNAKTAVTMGGGSSKVQAPHEVTPYEGIAAALGEDVDIRHSVGAYTHKLIPQLDDRLQTPDGELGYIMDVYESKNFGETPTDSKVLNNTRVIIHDAGFKDVDFRSFSAKVRARYTAKHTGPHTFGIASVGLSKLYVDGKLVIDNWTSQVRGDIFFGFGSREEKAQYDMIEGQTYEILIDYMTGHELMAMLRFGLLEPLASDVVEQAVKVAEGTDVAVVVVGLNNEWETEGYDKTELELPGGQNELIEAVANVNKNTIVVVQCGSPVVMPWIDKVSGVIVAWYGGQETGHSIADVLFGKVNPSGRLTQTFPKRLEDNPAFDNYPGENGKVIYGEGLFIGYRYYQRRKVDVFLPFGFGLSYTTFDYGNIKLDNSELDPQAHITVSVDVTNTGSIAGKEVVQVYVHDNHPRLSRPLAELKGFSKVELAPGETRTVQITLDKHAVAFYDDKEAVWVAEAGEFELHIGSSSADIRGKVPFTVTKSLSWTF
- Expt 4-3 % conv [1]: 2.4%
- Expt 4-4 % conv [2]: <3%
- Expt 4-2 % conv [3]: 2.1%
- Expt 4-1 % conv [4]: 19.8%

B3: 247 (protein, listed as Arthrobotrys oligospora)
chain: MDATTLKEIEETLAQLTLEEKISLLAGKDFWRTVPLPEKQIPSIKVSDGPSGARGDTFSGGQKAAFFPSGILMGATFNPELAYETGELLSEEVRAKSASVLLAPTACCHRSPLGGRNFESYSEDPLLSGKMASGYIRGVQSRGIAATMKHFVANEQETWRLYVDETIDETTLREIYLKPFEIAMREGQPWAIMTAYNIINGVHCDSHPLTLKQVLRGEWNYEGLVMSDWFGCNSMVESLLAGLDLEMPGPARKRPIKEFVEAAEKDESVRKAIDDSARRILTLIAKVGKWKDMTPEAPEYSRNDPETGKLIRRAGGEGTVLLKNEGKTLPLQPGSLKKVAFIGPNAKATVAGGGGSANLEPNYLTQPYETFVTAIKEINGDIEVPWVQGCIIDRWVPNIDVEGGFCRVGGPDSEAGLFLEWFRGYEATGEPVATTVFKTSNAFLWDSRPTSISPSEEFSVRFSGQISVPEDGKYNISLSTITASKLYLNGELLIDNWDFKERGNLMMNVGSEEVVKTIELKKGEWYPILVHNSSIWPKDSPRDPPMEEIGALGIRLGVAPVYDNAVLIAEAADAVKDADAVVIVVGLNNEWESESYDRSDTKLPNNQDDLIEEIAKVNQNVIVVNQSGAPVDMPWAENSNVKAIVQAWYAGQEAGHVIADVLLGKQNPSGKLPLTFPIKVQDNPSYLYFPGRDQKVEYTEKLMVGYRYYDTENVQTRFPFGYGLSYSTFSIGEPSLSTAELTEGQTFTANVDVSNTSNVAGAEVVQLYVKRPASTSSIKRPVKELKGFKKVHLGTGETATANITVDDKSLGIWSTEAGKWVVEAGDYEVLIGTSSVQDELKPAGKITVKAAWSWI
- Expt 4-3 % conv [1]: 2.7%
- Expt 4-4 % conv [2]: <3%
- Expt 4-2 % conv [3]: 2.0%
- Expt 4-1 % conv [4]: 18.0%

B4: 207 (protein, listed as Bifidobacterium dentium)
chain: MSESTYPEVNDLTLEEKASLTSGGDAWHLQGVEAKGIPGYMITDGPHGLRKSLASSTGETDLNDSVPATCFPPAAGLSSSWNPELIHQVGEAMAEECIQEKVAVILGPGVNIKRNPLGGRCFEYWSEDPYLAGHEAIGIVAGVQSKGIGTSLKHFAANNQETDRLRVSANISQRALREIYFPAFEHIVKEAQPWTIMCSYNRINGVHSAQNHWLLTDVLRDEWGFEGIVMSDWGADHDRVASLNAGLNLEMPPSYTDDQIVYAARDGRIQPEQLDRMAQGMIDLVNKTRAAMSVEGYRFDVDAHDEVAHQAAVESMVLLKNDDAILPVASDAKVAVIGEFARTPRYQGGGSSHITPTKMTSFLDTLAARGVDAKFAPGFTLDLEPADAAMAADAVEVAKGADVVLMFLGLPEAAESEGFDRETLDIPAKQVELLEAVAAENKNIVVVLSNGSVVSVAPWADNAKGILESWLLGQAGGPALADVIFGNVSPSGKLAQTVPMDINDDPSMINWPGEEGHVDYGEGVFVGYRYYDTYDKAVDYPFGYGLSYATFEVSDVKVAKTGANTASVSAVVKNTSDVDAAETVQVYVAPGKSAVARPIHELKGFRKVFLKAGESAEVSFDLDERAFAYWSEKFDDWHVESGEYAIEVGTSSRDIAGTGVVELDGDGKAEPLTEWSTFGEWSDDPVGSKIVASVYAEGEAGNLPKMPDNDMMRMFLRSMPINSMPMLMSEGGKKITAFMLDEYAKVTE
- Expt 4-3 % conv [1]: 0.2%
- Expt 4-4 % conv [2]: <3%
- Expt 4-2 % conv [3]: 4.4%
- Expt 4-1 % conv [4]: 27.4%

B5: 250 (protein, listed as Modestobacter marinus)
chain: MTATTPSDPTALPLEQKVRLLSGQDFWSTPAVAEAGLSSVVLTDGPHGVRRQQGEFDQIGLLESVPATCFPPAVAVGSSWDPEVAERIGAAVGVEARAIGVPVVLGPGVNIKRSPLCGRNFEYYSEDPLLAGVLGAAHVRGQQGEGVGASVKHFAANNQETQRMQVSADVDERTLREVYLPAFERVVTESRPATVMCAYNKVNGVYASQHRWLLTEVLREEWGFRGAVVSDWGAVDDRVAALEAGLDLQMPGDSGAGNALVVEAVRAGVLDEAVVDRSVRRVAALAGLVAEPTAGFDVEAHHALARELAAGCAVLLKNDGGTLPLTAGTRITVVGEFARTPRFQGGGSSHVNATRVDDALTALQGAVEVTFAPGFTLDGSGDAAALREEAVAAARGAEVTVVFAGLAEADESEGFDRTTLDLPAGQVDLIRAVAAVSLRTVVVLSSGSVVSLEGWHDDVDAVLAGFLLGQAGGGALADLLTGAVDPSGRLAETIPLRLQDTPSYLTFPGEQGHARYGEGVMVGYRHYETAEQPVRYPFGHGLSYTSFATTDLQVRTRGADGATATVTVTNTGERAGRHVVQVYVATAAGPVRRPARELRAFTKVSLAAGESATVAFELDRRAFAYWDVREHDWVVAPGEYSVQIGASAADVLDQRTVTLAGDDLVPELTLQSSVAEWFAHPVAGPQLLAGFVAAMPDGAAEMHEGMLQMIGSMPMRRFAADFGSAVPAAELDRLMAAARAAR
- Expt 4-3 % conv [1]: 2.6%
- Expt 4-4 % conv [2]: <3%
- Expt 4-2 % conv [3]: 36.0%
- Expt 4-1 % conv [4]: 88.5%
